The results in this text go back to patent US20250074980A1 (BRIGHAM AND WOMEN S HOSPITAL, published 2025).

As usually defined, the IC50 is the midpoint of a concentration-inhibition curve. The low end stands for inhibition by little substance, the high end for a need for much substance. A word on the Kd: it is the concentration at which binding is half-saturated. Lower therefore signals tighter binding. Usually koff stands for the first-order rate constant of dissociation. Read a low koff as slow dissociation. Broadly, the kon is the rate constant with which the complex forms.

The target in test [1] is T1, GST-CEACAM1 (human, UniProt P13688 35-141, limits assumed).
T1 construct: also called human CEACAM1-GST protein
T1 sequence: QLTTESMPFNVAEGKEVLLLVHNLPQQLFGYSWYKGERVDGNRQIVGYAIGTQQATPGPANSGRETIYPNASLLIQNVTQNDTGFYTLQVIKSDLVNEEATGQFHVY
Nature of the test: competition ELISA: binding of human CEACAM1-GST (37.5 µg/ml) to human CEACAM1 IgV domain tagless protein (1 µg/ml), anti-GST detection, OD 450 nm. Here is the method: The ability of the CEACAM1 antibodies to block CEACAM1 homodimerization was tested. […] In addition, IgG4 antibody was used as a control (0-1000 nM). Goat polyclonal anti-GST-HSP antibody from Abcam (1:2000) was used and assays were developed by addition of TMB solution (Life technologies). OD values were read at 450 nm on a plate reader. Data was plotted in a Graphpad and best-fit IC-50 values were determined.
In general terms: ELISA stands for enzyme-linked immunosorbent assay.

For test [2], the target named is T2, CEACAM8 on transfected HeLa cells (human, UniProt P31997 35-320).
T2 construct: whole, on cells; also called HeLa-CEACAM8; HeLa C8
T2 sequence (looked up): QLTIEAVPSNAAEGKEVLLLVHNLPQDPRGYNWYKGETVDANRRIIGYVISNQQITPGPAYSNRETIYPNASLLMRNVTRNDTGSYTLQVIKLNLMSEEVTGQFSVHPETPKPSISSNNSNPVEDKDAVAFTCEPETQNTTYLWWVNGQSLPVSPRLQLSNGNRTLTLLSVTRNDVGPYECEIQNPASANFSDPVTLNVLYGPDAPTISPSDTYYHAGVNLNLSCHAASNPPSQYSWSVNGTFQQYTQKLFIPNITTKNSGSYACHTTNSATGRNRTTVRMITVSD
Nature of the test: flow cytometry titration, HeLa-CEACAM8 transfectants, anti-human IgG4 FITC. The method, then: FIGS. 31A and 31B show flow cytometry analyses of stable HeLa CEACAM1 (HeLa C1) transfectant, stable HeLa CEACAM3 transfectant (HeLa C3), stable HeLa CEACAM5 transfectant (HeLa C5), stable HeLa CEACAM6 transfectant (HeLa C6), and stable HeLa CEACAM8 transfectant (HeLa C8). FIG. 31A: 5×10\hat{ }4 indicated HeLa transfectants were washed with staining buffer and CP08H03/Vκ8 S29A (labeled “CP08”, left) or CEACAM1 antibody CM-24 was incubated at room temperature for 30 min, washed twice with staining buffer, and stained for anti-human IgG4 Fluorescein isothiocyanate (FITC) conjugated secondary antibody at room temperature for 20 min. Fluorescence intensities were determined by flow cytometry. Live cells were determined by 4′,6-diamidino-2-phenylindole (DAPI) staining as shown on the y-axis. Staining with the respective CEACAM1 antibody is shown on the x-axis. […]
The cervical adenocarcinoma cell line HeLa (ATCC No CCL-2) as well as transfected cell lines HeLaCEACAM1, HeLaCEACAM3, HeLaCEACAM5, HeLaCEACAM6 and HeLaCEACAM8 used for flow cytometry experiments were cultured at 37° C., 5.0% CO₂ in Dulbecco's modified Eagle's medium supplemented with 10% fetal bovine serum, penicillin (100 U/ml) and dihydrostreptomycin (100 μg/ml). […] Data were acquired with a Cytoflex flow cytometer (Invitrogen) and analyzed with FlowJo software (TreeStar, V7.6.5 for Windows).

Test [3] deals with T3, His-tagged CEACAM1 (human, UniProt P13688 35-428).
T3 construct: 45 kDa SPR analyte; also called CEACAM1-HIS; CEACAM1 analyte
T3 sequence: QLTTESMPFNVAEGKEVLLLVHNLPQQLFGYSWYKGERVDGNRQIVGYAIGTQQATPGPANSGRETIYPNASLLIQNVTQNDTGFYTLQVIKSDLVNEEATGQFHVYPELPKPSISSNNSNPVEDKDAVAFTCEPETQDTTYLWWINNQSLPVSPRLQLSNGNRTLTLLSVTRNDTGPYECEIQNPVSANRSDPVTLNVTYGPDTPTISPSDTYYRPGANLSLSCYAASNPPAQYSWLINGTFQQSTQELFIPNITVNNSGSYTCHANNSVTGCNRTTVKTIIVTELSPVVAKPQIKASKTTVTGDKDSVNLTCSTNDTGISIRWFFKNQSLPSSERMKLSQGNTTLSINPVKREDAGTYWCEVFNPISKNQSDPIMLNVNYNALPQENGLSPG
The test can be described thus: SPR multi-cycle. Summed up:
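On a Series S Protein A chip in a Biacore T200, purified antibody at 1 μg/ml was captured to ~75 RU, and His-tagged CEACAM1 analyte flowed at 80 μl/min in 2-fold dilutions (200 to 3.125 nM or 100 to 1.5625 nM) in HBS-P+ (pH 7.4) at 25° C. Association lasted 50 or 150 seconds and dissociation 100 seconds. The resulting multi-cycle kinetic sensorgrams yielded Kon, koff, Kd and relative KD.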

B1: CP08H03/Vκ8 S29A (antibody, IgG4, V domains shown)
VH: EVQLLESGGGLVQPGGSLRLSCAASGFIFSSHGMSWVRQAPGKGLEWVATISSGGTYTYYPDSVKGRFTISRDNSKNTLYLQMNSLKAEDTAMYYCARHDFDYFPYWFAHWGQGTLVTVSS
VL: EIVLTQSPATLSLSPGERATLSCRANSAVSYMYWYQQKPGQAPRPWIYLTSNRATGVPARFSGSGSGTDYTLTISSLEPEDFAVYYCQQWSSNPPTFGQGTKLEIK
notes: IgG4 (S241P), kappa; also called CP08_H03/Parent VL; CP08_H03/Parental
B1: in test [1], the IC50 is 2.11 nM. For the same molecule, the binding result in test [2] was “no binding (tested: 100 ug/ml)”.

B2: chimeric antibody VH0/Vκ0 (antibody, IgG4, V domains shown)
VH: EVQLVESGGDLVKPGGSLKLACAASGFIFSSHGMSWVRQTPDKRLEWVATISSGGTYTYYPDSVKGRFTISRDNDKNTLYLQMNSLKSEDTAMYYCARHDFDYDAAWFAYWGQGTLVTVSS
VL: QIVLTQSPALMSASPGVKVTMTCSANSSVSYMYWYRQKPRSSPKPWIYLTSNLASGVPARFSGSGSGTSYSLTISSMEAEDAATYYCQQWSSNPPTFGSGTKLEIK
notes: IgG4 (S241P), kappa; also called VH0/Vκ0 (control); Chimeric VH0/Vκ0
Consider B2, for which, in test [3], the equilibrium dissociation constant (Kd) is 105 nM, the koff was found to be 0.0258 s⁻¹, the kon is 246000 M⁻¹ s⁻¹ and the “relative KD” value came to 1.
